{"source": "patent US20220193132A1", "about": "(NATIONAL RESEARCH COUNCIL OF CANADA, published 2022)", "binders": {"B1": {"name": "F263-4B3 (antibody, V domains shown)", "VH": "EVQLQQSGPELVKPGSSVKISCKASGYTFTDYNMDWVKQSHGKSLEWIGTINPNNGGTSYNQKFKGKATLTVDKSSNTAYMELRSLTSEDSAVYYCARGYDYDLWFAYWGQGTLVTVSA", "VL": "EIVLTQSPALMAASPGEKVTITCSVSSSISSSNLHWYQQKSETSPKPWIYGTSNLASGVPVRFSGSGSGTSYSLTISSMEAEDAATYYCQQWSSYPLTFGAGTKLELE", "notes": "Mouse hybridoma mAb"}}, "key": {"[1]": {"target": "T1, recombinant human wild type EGFR protein (extracellular domain), denatured (human, UniProt P00533 25-645)", "T1 construct": "Same protein as m23 after 95 C for 5 min in PBS with 40 mM DTT (denatured, reduced); also called wt EGFR Denatured", "assay": "ELISA Exp 2, purified mAb 1 ug/ml;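 also: ELISA of purified mAb binding to plate-coated antigen, native or heat/DTT-denatured, with pNPP substrate developed for 30 min and incubations at room temperature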", "experimental": "(§1) Pre- and post-immune sera titers of animals were assessed by ELISA on recombinant EGFRvIII protein. Unless otherwise stated, all incubations were performed at room temperature. […] Microplates were washed three times in PBS and blocked for 30 min with PBS containing 1% bovine serum albumin (BSA, Sigma Cat #A7030). Blocking buffer was removed and 25 μl of serial dilutions of sera samples were added. […] After a 1-h incubation, microplates were washed 4 times and 25 μl of p-nitrophenyl phosphate (pNPP) substrate (Sigma-Aldrich Canada Co., Oakville, ON) at 1 mg/ml in carbonate buffer at pH 9.6 was added and further incubated for 30 min.\n(§2) Antigens at 1-2 mg/ml were incubated at 95° C. for 5 min in PBS containing DTT at a final concentration of 40 mM. They were then incubated on ice for 5 min and diluted at their final coating concentration for ELISA purpose.\n(§3) ELISA was performed as described above (serum titer determination) using 25 μl of mAb supernatant (Exp 1) or purified mAb at 1 μg/ml (Exp 2)."}, "[2]": {"target": "T2, recombinant human wild type EGFR protein (extracellular domain), native (human, UniProt P00533 25-645)", "T2 construct": "also called wt EGFR; EGFR WT", "assay": "ELISA Exp 2, purified mAb 1 ug/ml", "experimental": "as §1, §2, §3"}, "[3]": {"target": "T3, recombinant human EGFRvIII protein (extracellular domain), native (human, UniProt P00533 298-623)", "T3 construct": "also called hEGFRvIII", "assay": "ELISA Exp 2, purified mAb 1 ug/ml", "experimental": "as §1, §2, §3"}, "[4]": {"target": "T4, recombinant human EGFRvIII protein (extracellular domain), denatured (human, UniProt P00533 298-623)", "T4 construct": "Same protein as m21 after 95 C for 5 min in PBS with 40 mM DTT (denatured, reduced); also called EGFRvIII Denatured", "assay": "ELISA Exp 2, purified mAb 1 ug/ml", "experimental": "as §1, §2, §3"}, "[5]": {"target": "T5, EGFRvIII, full length, overexpressed on glioblastoma cells (human, UniProt P00533 298-623)", "T5 construct": "Cells overexpress full length EGFRvIII (deletion of exons 2-7 of EGFR); Cell line (U87MG or DKMG) is named under assay; also called U87MG-EGFRvIII; U87vIII", "assay": "flow cytometry dose-response on U87MG-EGFRvIII cells, apparent Kd", "experimental": "Prior to analysis, cells were plated such that they were not more than 80% confluent on the day of analysis. Unless otherwise stated, all media are kept are 4° C. and all incubations are performed on wet ice. Cells were washed in PBS, harvested by the addition of cell dissociation buffer (Sigma), centrifuged and resuspended in complete medium at a cell density of 2×10⁶ cells/mL. Fifty μL/well of cells were distributed in a polypropylene v-bottom 96 well plate and serial 1/3 dilutions of purified mAbs starting at 100 nM were added and incubated for 2 hours. […] Cells were washed and re-suspended in medium containing Propidium iodide to exclude dead cells from analysis. Samples were filtered through a 60 μm nylon mesh filter plate (Millipore, Ireland) to remove cell aggregates. Flow cytometry analyses were performed on 2,000 viable single-cells events gated on forward scattering, side scattering parameters and propidium iodide dye exclusion using a BD-LSRFortessa flow cytometer (Becton-Dickinson Biosciences, CA, USA) and a standard filter set using BD FACSDiva™ acquisition software, according to manufacturer's instructions.\nSpecific detection of antibody binding was calculated as the mean fluorescent intensity of binding to each primary antibody after background level subtraction of the mean fluorescent intensity of binding of mouse IgG control. The data were analyzed with GraphPad Prism v 6.0 software using one-site specific binding with Hill slope non-linear regression curve fit model to determine Bmax (maximum specific binding) and Kdₐₚₚ (concentration needed to achieve a half-maximum binding at equilibrium) for each mAb tested."}, "[6]": {"target": "T5, EGFRvIII, full length, overexpressed on …", "assay": "cell-based or functional assay"}, "[7]": {"target": "T6, EGFRvIII amino acid residues 15 to 37 with Lys36 to Ala mutation (human)", "T6 construct": "mutation is already in the entry", "T6 peptide": "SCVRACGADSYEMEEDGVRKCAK", "assay": "yeast display flow cytometry, Myc-normalized;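 also: Anti-EGFRvIII monoclonal antibodies tested by flow cytometry on yeast displaying alanine-substituted fragments, two-color indirect fluorescence with anti-Myc signal tracking fusion protein expression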"}, "[8]": {"target": "T7, EGFRvIII amino acid residues 15 to 37 with Val32 to Ala mutation (human)", "T7 construct": "mutation is already in the entry", "T7 peptide": "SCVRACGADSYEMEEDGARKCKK", "assay": "yeast display flow cytometry, Myc-normalized"}, "[9]": {"target": "T8, EGFRvIII amino acid residues 15 to 37 with Met27 to Ala mutation (human)", "T8 construct": "mutation is already in the entry", "T8 sequence (peptide, as listed by the source, change not shown)": "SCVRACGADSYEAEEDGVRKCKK", "assay": "yeast display flow cytometry, Myc-normalized"}, "[10]": {"target": "T9, EGFRvIII amino acid residues 15 to 37 with Asp23 to Ala mutation (human)", "T9 construct": "mutation is already in the entry", "T9 peptide": "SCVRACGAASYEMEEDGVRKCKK", "assay": "yeast display flow cytometry, Myc-normalized"}, "[11]": {"target": "T10, EGFRvIII amino acid residues 15 to 37 with Arg33 to Ala mutation (human)", "T10 construct": "mutation is already in the entry", "T10 peptide": "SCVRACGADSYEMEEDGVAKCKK", "assay": "yeast display flow cytometry, Myc-normalized"}, "[12]": {"target": "T11, EGFRvIII amino acid residues 15 to 37 with Glu28 to Ala mutation (human)", "T11 construct": "mutation is already in the entry", "T11 peptide": "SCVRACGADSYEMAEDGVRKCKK", "assay": "yeast display flow cytometry, Myc-normalized"}, "[13]": {"target": "T12, EGFRvIII amino acid residues 15 to 37 with Gly31 to Ala mutation (human)", "T12 construct": "mutation is already in the entry", "T12 peptide": "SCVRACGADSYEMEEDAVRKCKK", "assay": "yeast display flow cytometry, Myc-normalized"}, "[14]": {"target": "T13, EGFRvIII amino acid residues 15 to 37 with Ser15 to Ala mutation (human)", "T13 construct": "mutation is already in the entry", "T13 peptide": "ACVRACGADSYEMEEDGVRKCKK", "assay": "yeast display flow cytometry, Myc-normalized"}, "[15]": {"target": "T14, EGFRvIII amino acid residues 15 to 37 with Glu26 to Ala mutation (human)", "T14 construct": "mutation is already in the entry", "T14 peptide": "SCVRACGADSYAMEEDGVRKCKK", "assay": "yeast display flow cytometry, Myc-normalized"}, "[16]": {"target": "T15, EGFRvIII amino acid residues 15 to 37 with Cys16 to Ala mutation (human)", "T15 construct": "mutation is already in the entry", "T15 peptide": "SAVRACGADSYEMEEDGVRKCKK", "assay": "yeast display flow cytometry, Myc-normalized"}, "[17]": {"target": "T16, EGFRvIII amino acid residues 15 to 37 with Asp30 to Ala mutation (human)", "T16 construct": "mutation is already in the entry", "T16 peptide": "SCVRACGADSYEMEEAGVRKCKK", "assay": "yeast display flow cytometry, Myc-normalized"}, "[18]": {"target": "T17, EGFRvIII amino acid residues 15 to 37 with Lys34 to Ala mutation (human)", "T17 construct": "mutation is already in the entry", "T17 peptide": "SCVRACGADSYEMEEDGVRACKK", "assay": "yeast display flow cytometry, Myc-normalized"}, "[19]": {"target": "T18, EGFRvIII amino acid residues 15 to 37 with Glu29 to Ala mutation (human)", "T18 construct": "mutation is already in the entry", "T18 peptide": "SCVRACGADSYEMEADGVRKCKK", "assay": "yeast display flow cytometry, Myc-normalized"}, "[20]": {"target": "T19, EGFRvIII amino acid residues 15 to 37 with Lys37 to Ala mutation (human)", "T19 construct": "mutation is already in the entry", "T19 peptide": "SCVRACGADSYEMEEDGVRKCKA", "assay": "yeast display flow cytometry, Myc-normalized"}, "[21]": {"target": "T20, EGFRvIII amino acid residues 15 to 37 with Ser24 to Ala mutation (human)", "T20 construct": "mutation is already in the entry", "T20 peptide": "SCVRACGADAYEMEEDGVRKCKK", "assay": "yeast display flow cytometry, Myc-normalized"}, "[22]": {"target": "T21, EGFRvIII amino acid residues 15 to 37 with Val17 to Ala mutation (human)", "T21 construct": "mutation is already in the entry", "T21 peptide": "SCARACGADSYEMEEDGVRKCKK", "assay": "yeast display flow cytometry, Myc-normalized"}, "[23]": {"target": "T22, EGFRvIII amino acid residues 15 to 37 with Tyr25 to Ala mutation (human)", "T22 construct": "mutation is already in the entry", "T22 peptide": "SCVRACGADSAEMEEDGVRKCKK", "assay": "yeast display flow cytometry, Myc-normalized"}, "[24]": {"target": "T23, EGFRvIII amino acid residues 15 to 37 with Arg18 to Ala mutation (human)", "T23 construct": "mutation is already in the entry", "T23 peptide": "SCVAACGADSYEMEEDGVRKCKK", "assay": "yeast display flow cytometry, alanine scan", "text": "(§4) Assessment of the binding of anti-EGFRvIII mAbs to the fusion proteins expressed on yeast cell surface was done by flow cytometry analysis. Briefly, yeast cells were labeled with both the anti-hEGFRvIII mAb and chicken anti-Myc antibody, the latter being used to monitor the level of expression of the fusion protein. Following a wash step, binding of the primary antibodies is probed by a two-color indirect fluorescence labeling using secondary antibodies specific for mouse and chicken antibodies, respectively.\n(§5) To further characterize mAb epitopes within the EGFRvIII 15-37 region, an alanine scan of this region was performed, and modified fragments were expressed at the surface of the yeast. […] The resulting peptides were expressed at the surface of the yeast and each anti-EGFRvIII mAbs was tested on the corresponding yeast mutant strain by flow cytometry analysis. Thus, this assay determined the contribution of each amino acid(s) in the monoclonal antibody binding."}, "[25]": {"target": "T24, EGFRvIII amino acid residues 15 to 37 with Gly21 to Ala mutation (human)", "T24 construct": "mutation is already in the entry", "T24 peptide": "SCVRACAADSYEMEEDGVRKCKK", "assay": "yeast display flow cytometry, alanine scan", "text": "as §4, §5"}, "[26]": {"target": "T25, EGFRvIII amino acid residues 15 to 37 with Cys35 to Ala mutation (human)", "T25 construct": "mutation is already in the entry", "T25 peptide": "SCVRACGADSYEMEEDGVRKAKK", "assay": "yeast display flow cytometry, alanine scan", "text": "as §4, §5"}, "[27]": {"target": "T26, EGFRvIII amino acid residues 15 to 37 with Cys20 to Ala mutation (human)", "T26 construct": "mutation is already in the entry", "T26 peptide": "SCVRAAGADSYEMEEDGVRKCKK", "assay": "yeast display flow cytometry, alanine scan", "text": "as §4, §5"}, "[28]": {"target": "T5, EGFRvIII, full length, overexpressed on …", "assay": "cell-based or functional assay", "remark": "listed apart in the source"}, "[29]": {"target": "T1, recombinant human wild type EGFR …", "assay": "ELISA Exp 1, mAb supernatant"}, "[30]": {"target": "T2, recombinant human wild type EGFR …", "assay": "ELISA Exp 1, mAb supernatant"}, "[31]": {"target": "T3, recombinant human EGFRvIII protein …", "assay": "ELISA Exp 1, mAb supernatant"}, "[32]": {"target": "T4, recombinant human EGFRvIII protein …", "assay": "ELISA Exp 1, mAb supernatant"}, "[33]": {"target": "T27, EGFRvIII fragment amino acid residues 15 to 37, displayed on yeast (human)", "T27 construct": "also called aa 15-37; fragment 15-37", "T27 peptide": "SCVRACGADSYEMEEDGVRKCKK", "assay": "yeast surface display, flow cytometry"}}}
{"binder": "B1", "values": [{"measurement": "ELISA absorbance 405 nm", "setting": "[1]", "value": 0.003, "unit": "A405"}, {"measurement": "ELISA absorbance 405 nm", "setting": "[2]", "value": 0.066, "unit": "A405"}, {"measurement": "ELISA absorbance 405 nm", "setting": "[3]", "value": 1.19, "unit": "A405"}, {"measurement": "ELISA absorbance 405 nm", "setting": "[4]", "value": 0.603, "unit": "A405"}, {"measurement": "Kd", "setting": "[5]", "value": 21.2, "unit": "nM"}, {"measurement": "% survival (DM1 secondary-conjugate ADC surrogate assay, vs mouse IgG)", "setting": "[6]", "value": 83, "unit": "%"}, {"measurement": "% of binding vs wild-type fragment 15-37", "setting": "[7]", "value": 99.2, "unit": "%"}, {"measurement": "% of binding vs wild-type fragment 15-37", "setting": "[8]", "value": 92.4, "unit": "%"}, {"measurement": "% of binding vs wild-type fragment 15-37", "setting": "[9]", "value": 101, "unit": "%"}, {"measurement": "% of binding vs wild-type fragment 15-37", "setting": "[10]", "value": 94.1, "unit": "%"}, {"measurement": "% of binding vs wild-type fragment 15-37", "setting": "[11]", "value": 68.4, "unit": "%"}, {"measurement": "% of binding vs wild-type fragment 15-37", "setting": "[12]", "value": 86.7, "unit": "%"}, {"measurement": "% of binding vs wild-type fragment 15-37", "setting": "[13]", "value": 49.9, "unit": "%"}, {"measurement": "% of binding vs wild-type fragment 15-37", "setting": "[14]", "value": 94.7, "unit": "%"}, {"measurement": "% of binding vs wild-type fragment 15-37", "setting": "[15]", "value": 102, "unit": "%"}, {"measurement": "% of binding vs wild-type fragment 15-37", "setting": "[16]", "value": 169, "unit": "%"}, {"measurement": "% of binding vs wild-type fragment 15-37", "setting": "[17]", "value": 94.3, "unit": "%"}, {"measurement": "% of binding vs wild-type fragment 15-37", "setting": "[18]", "value": 136, "unit": "%"}, {"measurement": "% of binding vs wild-type fragment 15-37", "setting": "[19]", "value": 71.6, "unit": "%"}, {"measurement": "% of binding vs wild-type fragment 15-37", "setting": "[20]", "value": 170, "unit": "%"}, {"measurement": "% of binding vs wild-type fragment 15-37", "setting": "[21]", "value": 194, "unit": "%"}, {"measurement": "% of binding vs wild-type fragment 15-37", "setting": "[22]", "value": 146, "unit": "%"}, {"measurement": "% of binding vs wild-type fragment 15-37", "setting": "[23]", "value": 98.8, "unit": "%"}, {"measurement": "binding result", "setting": "[24]", "value": "no binding (tested: 0-15% of wild-type binding)"}, {"measurement": "binding result", "setting": "[25]", "value": "no binding (tested: 0-15% of wild-type binding)"}, {"measurement": "binding result", "setting": "[26]", "value": "no binding (tested: 0-15% of wild-type binding)"}, {"measurement": "binding result", "setting": "[27]", "value": "no binding (tested: 0-15% of wild-type binding)"}, {"measurement": "% internalization (pHrodo surrogate assay, vs 225 mAb)", "setting": "[28]", "value": 61, "unit": "%"}, {"measurement": "ELISA absorbance 405 nm", "setting": "[29]", "value": 0.041, "unit": "A405"}, {"measurement": "ELISA absorbance 405 nm", "setting": "[30]", "value": 1.09, "unit": "A405"}, {"measurement": "ELISA absorbance 405 nm", "setting": "[31]", "value": 1.5, "unit": "A405"}, {"measurement": "ELISA absorbance 405 nm", "setting": "[32]", "value": 1.74, "unit": "A405"}, {"measurement": "binding result", "setting": "[33]", "value": "binds"}]}
